The results in this text go back to the DeepSol protein solubility set.

The series in a line: soluble on expression in E. coli; label from the status in PepcDB or PDB records.
Consider “MGLLVNGIWQDQWYDTESTGGRFVRHDSQFRHWITPDGSPGPTGHGGFKAEAGRYHLYVSLACPWAHRTLIFRKLKGLEGMIDVSVVHWLMRENGWTFAPGPGVMPDPLFNAEYLYQIYTRADAQYSGRVTVPILWDKQKQTIVNNESSEIIRIFNSAFDGLGAKSGDYYPKALRTQIDALNDRIYHTINNGVYKCGFATTQTAYEEAIAPLFESLDWLEGILQGHQYLTGDEITEADWRLFTTLIRFDVVYVGHFKCNLRRIQDYPNLWRYLRDLYHQPGIAETVNFQHIKGHYYESHLNINPTGIVPMGPALDLSLALEHHHHHH”, for which the “soluble on expression in E. coli” value was “not soluble”.
For the sequence “GSMDQNTTEPVAATETLAEVPEHVLRGLPEEVRLFPSAVDKTRIGVWATKPILKGKKFGPFVGDKKKRSQVKNNVYMWEVYYPNLGWMCIDATDPEKGNWLRYVNWACSGEEQNLFPLEINRAIYYKTLKPIAPGEELLVWYDGEDNPEIAAAIEEERASARS”, the “soluble on expression in E. coli” value is “soluble”.
“MGSDKIHHHHHHMELVKFGKLKEQSYTMKESLRALKTNIQFCGDDIRTLLVTSSVPNEGKSTVALDLARSLTESGNRVLFIDTDMRKSVLAGRLRATAASGGEICGLSHYLSGQRRLEEVMYGTEIPGLFMIFAGPSVPNPTEILEKKYFQELLNFGKEHFNYIIIDCAPIGAAIDAAVVAKYCDGAIIVIGQGMASARMIQSVKKQLEASGVRILGAVLNKVNNKKNSHVSGYYGNYYGSYYGRSDKA”: the “soluble on expression in E. coli” value is given as “not soluble”.
For “MSLGQYDMQLIMGRTRWNGEFIGFERSTEKGVFSSNLKTEFMVELAESGGVGVFLNRRRVAALSLDGSRRALEAVLSCQKAFMTAQSDTRDEPSTDTKPKRHTKSSGTGFYVSDSGHIVTNHHVIAECSTINVLPPGGAAVSATLVAKDKTNDLAILKTASSPAAIPGLRSQMRLGEAVYVFGFPLTGILSTSGNFTAGAITATTGMEDDTRLAQISAPVQPGNSGGPLLDKYGNVIGVIVSKLNALNIAAATKDIPQNVNFAIKTGIATNFLDSSGVVPTGKVSTRELAPEAIADLAKIFTVQVLCNEGHHHHHH”, the “soluble on expression in E. coli” value is “not soluble”.
“MGKAKVPASKRAPSSPVAKPGPVKTLTRKKNKKKKRFWKSKAREVSKKPASGPGAVVRPPKAPEDFSQNWKALQEWLLKQKSQAPEKPLVISQMGSKKKPKIIQQNKKETSPQVKGEEMPAGKDQEASRGSVPSGSKMDRRAPVPRTKASGTEHNKKGTKERTNGDIVPERGDIEHKKRKAKEAAPAPPTEEDIWFDDVDPADIEAAIGPEAAKIARKQLGQSEGSVSLSLVKEQAFGGLTRALALDCEMVGVGPKGEESMAARVSIVNQYGKCVYDKYVKPTEPVTDYRTAVSGIRPENLKQGEELEVVQKEVAEMLKGRILVGHALHNDLKVLFLDHPKKKIRDTQKYKPFKSQVKSGRPSLRLLSEKILGLQVQQAEHCSIQDAQAAMRLYVMVKKEWESMARDRRPLLTAPDHCSDDA”: the “soluble on expression in E. coli” value is on record as “soluble”.
Consider “MIMGLENLKPAKGSVKKIKRVGRGQGSGMGKTATRGGKGQTARTGYKAKRGFEGGQQPLQRRLPKIGFRTKDSHIYSINVEKNEAIKNLEEITFSSLRALHHFPLYIEGVKLIGKDAKNLASKIKDERIKTSGQKLEHHHHHH”, for which the “soluble on expression in E. coli” value is recorded as “soluble”.
Regarding “MKIGFLGFGKSNRSLLKYLLNHQEAKFFVSEAKTLDGETKKFLEEHSVEYEEGGHTEKLLDCDVVYVSPGIKPDTSMIELLSSRGVKLSTELQFFLDNVDPKKVVGITGTDGKSTATALMYHVLSGRGFKTFLGGNFGTPAVEALEGEYDYYVLEMSSFQLFWSERPYLSNFLVLNISEDHLDWHSSFKEYVDSKLKPAFLQTEGDLFVYNKHIERLRNLEGVRSRKIPFWTDENFATEKELIVRGKKYTLPGNYPYQMRENILAVSVLYMEMFNELESFLELLRDFKPLPHRMEYLGQIDGRHFYNDSKATSTHAVLGALSNFDKVVLIMCGIGKKENYSLFVEKASPKLKHLIMFGEISKELAPFVGKIPHSIVENMEEAFEKAMEVSEKGDVILLSPGGASFDMYENYAKRGEHFREIFKRHGGDEV”, the “soluble on expression in E. coli” value is “soluble”.
As for “MGSDKIHHHHHHMGIKIPNMKPNYSLDDMRCFCMVAQYGSFKQAAVALQMPLSTLSRRIAKLEQDLALRLFNRDAHRVQLTFAGQRYYRRSAPIFDELDNVAACLQQDRNEAKGTIRISAPINFSVQVLVHHFNAFMRQYPDIELDLKLSNQTIDIDEEAMDLAFRIGHHSATHWIGRQLTNIRFAICGPANLDVSHIKAPADLAGLPTVLCSPMLTWSLQHIHSGEKQAYTATDNIRLKVDDMSLLTEVIAGGIGVGFIPDYHAQPLLESGKIQHILPAWSNQARGCEMLYRDRENIPYRVRLFIDFMLQRFKSNDGVM”, the “soluble on expression in E. coli” value is listed as “not soluble”.
The result for “MVHPAFQVFTDALRQRFGEALDAVVLYGSCLHTSDLTEGIADFYVLVSDYRLAYSGRLLAGLNAWLPPNVFYLEVPAAAGVMRAKYAVISTADFERGARQWFHPYIWARFAQPARLLYARDDQTGKRVHTAQASAVLKFISTTLPVLESGPSDLEMIWASGLMLTYAAELRAEREARARHLVRIDPEIYSRLTAAAMPALIPLLSLQADGRYHIGPITPLKRLSARIHWRLRRWQGRVLSVLRLSKATMTFRDCLDYAAWKIERHTGIKVEITPMLRRHPILWGYKVMWQLLRRGVLRLEHHHHHH” reads “not soluble”; that for “MSLTNHEQVLTDYLAAFIEELVQAGVKEAIISPGSRSTPLALMMAEHPILKIYVDVDERSAGFFALGLAKASKRPVVLLCTSGTAAANYFPAVAEANLSQIPLIVLTADRPHELRNVGAPQAMDQLHLYGSHVKDFTDMALPENSEEMLRYAKWHGSRAVDIAMKTPRGPVHLNFPLREPLVPILEPSPFTATGKKHHHVHIYYTHEVLDDSSIQKMVTECTGKKGVFVVGPIDKKELEQPMVDLAKKLGWPILADPLSGLRSYGALDEVVIDQYDAFLKEAEIIDKLTPEVVIRFGSMPVSKPLKNWLEQLSDIRFYVVDPGAAWKDPIKAVTDMIHCDERFLLDIMQQNMPDDAKDAAWLNGWTSYNKVAREIVLAEMANTTILEEGKIVAELRRLLPDKAGLFIGNSMPIRDVDTYFSQIDKKIKMLANRGANGIDGVVSSALGASVVFQPMFLLIGDLSFYHDMNGLLMAKKYKMNLTIVIVNNDGGGIFSFLPQANEPKYFESLFGTSTELDFRFAAAFYDADYHEAKSVDELEEAIDKASYHKGLDIIEVKTNRHENKANHQALWVKIADALKALDEGHHHHHH”, “soluble”.
For “MAHHHHHHMHTYTTQPCATSTSVPQLTRLSVSSSGHSPAVPTNWSIGRPTTLRCRDTDSDVHCNWGAIQGEDEEDKESLIGCATQVWRISAEVQMPLQCSHGTRATEEETLLGAPTSHCGDHLTNGRGVFASSPPIVWQPAPLPASFSASQIDLSGGGQDNAVLLSGAPVGSAEEETHNDNREVTRSNVIPATGDIAATESNDSFVGLEAAPRKGYARSNSGTPPRSDLGSPNNAANLQAHGRAANGVSAGVELVYRAAASETNSHHFGASLCANIGSGCRARLGIPAEWRDHMCAATPQGRGVWVQVPGQLRESEYPASTTTAEAVAARLAHISIHTSPTPKRLAFEEEELVERVSGGGSPTLIPAVRFVADGAARRGACNEASVAQGAGGSTEVGLLGRGAGGLSSSGMRWASVFGDSGHLELCSSRIPSGLQLLRSRKRCLDEMQATDTQERHADTLVTGGISDARDASYLVPDRVARMSLATPFENLEEDGDGDEEAVKRQRREEQRRMRLQHLLPASPNTMDDLIPAPARALGTAVAPCSSVSSSHVRSTVHGIQSTQDQQHQQDRTRNDDPASWSQVSSISYVTPASQSTSMGLWGVPGTLSQGHHGGAVVCSVGSGSQLLTPLPTNVMPQPSHKP”, the “soluble on expression in E. coli” value was “not soluble”.
On to “MPSSSNSAAFSLDEFAKALDKHDYHAEKGQTVHGKICQHANEGVYVDFGGKSPGFVPVQELGLRPHAEIEDSFPLDSAWDFLVTSEQNDEGQVRLSRRQLQIQQSWENLAELEESGKTLEMVVTGTNKGGVVGDVEGLRGFIPRSHLMHKDNMDALVGQVLKAHILEANQDNNKLVLTQRRIQQAESMGKIAAGNIYEGKVAKIQPYGVFVEIEGVTGLLHVSQVSGTRVDSLNTLFAFGQAISVYVQEIDEYKNRISLSTRILETYPGELVEKFDEMMADAPNRLPLVQSKQNLGDKQEQLEKSLEHHHHHH”, for which the “soluble on expression in E. coli” value is recorded as “not soluble”.
On to “MGSDKIHHHHHHMDITPFLDKKSKTPLYEQLYTFFKQEISHARITKGTRLPSKRRLSSLLDVSTATIERAYEQLTAEGYVKSKPKIGWFAAEVEPGFPTAPDHFQQSVQPGLHQKNAPAIDFHQGSVDPTLFPFNAWRKSIVKSLDRYSGSFHTSGDPQGEYELRHMIARFVRLSRGVNCEPGQIIIGAGTTVLLQNLCLSLKPGTKIGFEEPGFHRSRRMFEANHMDVTPICSDAEGVLPDELYRQNPYLMYTTPSHQFPIGTIMTITRRQELLAWAAETNSFIIEDDYDGEFRYSGHPIPSLQGLDPNGRVIYLGTFSKSLLPSLRLSFMIVPPELMEPIQNNVQLMKQTVSAHSQLALADFIETGEWQKHINRMRSLYRKKHAVLLEAIRSELGNTVEILGKNSGLHILLRLLFPASEEEAIQAAADHGVTLYPVSPSYIEQTPFTSVLIGYGGLSEEDIRLGIQKLKTAWAPLISSY”, for which the “soluble on expression in E. coli” value is reported as “not soluble”.
Turning to “DNYNVEGASASFAVGYERGVKQLAEGLLLSIYAELDWAAFRSVSDKRSLPFSDDSAQNRFRFLAGAGVHKRLNPNIELYARGAVGASFFPENNGSSSRELKGGFNVSLRVGLSCSLRDNFAVFIDTGTSDIVRGGLALMW”, the “soluble on expression in E. coli” value was “not soluble”.
“GGGGGGMNLRRRGIVVSFHSNMVTVEDEETGERILCKLRGKFRLQNLKIYVGDRVEYTPDETGSGVIENVLHRKNLLTKPHVANVDQVILVVTVKMPETSTYIIDKFLVLAEKNELETVMVINKMDLYDEDDLRKVRELEEIYSGLYPIVKTSAKTGMGIEELKEYLKGKISTMAGLSGVGKSSLLNAINPGLKLRVSEVSEKLQRGRHTTTTAQLLKFDFGGYVVDTPGFANLEINDIEPEELKHYFKEFGDKQCFFSDCNHVDEPECGVKEAVENGEIAESRYENYVKMFYELLGRRKK”: the “soluble on expression in E. coli” value is “soluble”.
In the case of “MGSDKIHHHHHHMGIYMRDDILDIITLTTDFGTNEGYVGAMKGRILNILKKYNKDAKIIDISHEIKPFNIYHGAYVLLTAIPYFPPSVHVAVIDPTVGSERKSIVIETKSGYYLVGPDNGLFTYVAEKLGIKRIIKIDEERYKPSSTFHGRDVYAVVGAEILINNGYDGEELDEMVKIDETKKRVIHIDRFGNIITNIKKDEVTFKYYDTIMIKIRHKNGIEKIIKCKFVKSYFEEKNNFICLINSEGFLEISKFMDNASKLLNVDYLDEIEIIY”, the “soluble on expression in E. coli” value is on record as “not soluble”.
The result for “MTDAAEEVLLGKKGCTGVITLNRPKFLNALTLNMIRQIYPQLKKWEQDPETFLIIIKGAGGKAFCAGGDIRVISEAEKAKQKIAPVFFREEYMLNNAVGSCQKPYVALIHGITMGGGVGLSVHGQFRVATEKCLFAMPETAIGLFPDVGGGYFLPRLQGKLGYFLALTGFRLKGRDVYRAGIATHFVDSEKLAMLEEDLLALKSPSKENIASVLENYHTESKIDRDKSFILEEHMDKINSCFSANTVEEIIENLQQDGSSFALEQLKVINKMSPTSLKITLRQLMEGSSKTLQEVLTMEYRLSQACMRGHDFHEGVRAVLIDKDQSPKWKPADLKEVTEEDLNNHFKSLGSSDLKFAENLYFQ” reads “soluble”; that for “MPTFSLWLPAGSNNVHPCGDPYAHHLFMRCLYHAKHDPTMKFDVKTTNVNKTSQEFKNTGLRRMPGISAEESGETQTFETEDDILDFLEYLKPERGDDEEAENATCDLFRQFARFVKDVEHRDTAFNTELLRLDKYLSEQETKFLISDDVTHIDCLVLTRLHSIRVAAKMLKNYEIPADLSHVLDYLKAGYATEMFRVSCPSDQEIVLHWTELKDTPRLSAKDRAKLVREEPVFSFSV”, “not soluble”.
